# Assay results as given in PMC3498451.
# Target: HIV-1 Gag-glutathione-S-transferase (GST) fusion protein, wild type (HIV-1)
# Assay: cross-linking + pull-down
binder,measurement,value
"2',3'-cyclic-nucleotide 3'-phosphodiesterase (CNP), human, wild type (natural protein) MNRGFSRKSHTFLPKIFFRKMSSSGAKDKPELQFPFLQDEDTVATLLECKTLFILRGLPGSGKSTLARVIVDKYRDGTKMVSADAYKITPGARGAFSEEYKRLDEDLAAYCRRRDIRILVLDDTNHERERLEQLFEMADQYQYQVVLVEPKTAWRLDCAQLKEKNQWQLSADDLKKLKPGLEKDFLPLYFGWFLTKKSSETLRKAGQVFLEELGNHKAFKKELRQFVPGDEPREKMDLVTYFGKRPPGVLHCTTKFCDYGKAPGAEEYAQQDVLKKSYSKAFTLTISALFVTPKTTGARVELSEQQLQLWPSDVDKLSPTDNLPRGSRAHITLGCAADVEAVQTGLDLLEILRQEKGGSRGEEVGELSRGKLYSLGNGRWMLTLAKNMEVRAIFTGYYGKGKPVPTQGSRKGGALQSCTII",stoichiometry N,1 CNP:Gag-GST
